Results reported in publication doi:10.1101/2023.03.15.532784.

Target: Homo sapiens full-length TRPV4 (hTRPV4) with C-terminal FLAG-tag and 10xHis-tag (human) (UniProt Q9HBA0)
Assay: cryo-EM structure

Sequence of UniProt Q9HBA0 (Q9HBA0 whole entry): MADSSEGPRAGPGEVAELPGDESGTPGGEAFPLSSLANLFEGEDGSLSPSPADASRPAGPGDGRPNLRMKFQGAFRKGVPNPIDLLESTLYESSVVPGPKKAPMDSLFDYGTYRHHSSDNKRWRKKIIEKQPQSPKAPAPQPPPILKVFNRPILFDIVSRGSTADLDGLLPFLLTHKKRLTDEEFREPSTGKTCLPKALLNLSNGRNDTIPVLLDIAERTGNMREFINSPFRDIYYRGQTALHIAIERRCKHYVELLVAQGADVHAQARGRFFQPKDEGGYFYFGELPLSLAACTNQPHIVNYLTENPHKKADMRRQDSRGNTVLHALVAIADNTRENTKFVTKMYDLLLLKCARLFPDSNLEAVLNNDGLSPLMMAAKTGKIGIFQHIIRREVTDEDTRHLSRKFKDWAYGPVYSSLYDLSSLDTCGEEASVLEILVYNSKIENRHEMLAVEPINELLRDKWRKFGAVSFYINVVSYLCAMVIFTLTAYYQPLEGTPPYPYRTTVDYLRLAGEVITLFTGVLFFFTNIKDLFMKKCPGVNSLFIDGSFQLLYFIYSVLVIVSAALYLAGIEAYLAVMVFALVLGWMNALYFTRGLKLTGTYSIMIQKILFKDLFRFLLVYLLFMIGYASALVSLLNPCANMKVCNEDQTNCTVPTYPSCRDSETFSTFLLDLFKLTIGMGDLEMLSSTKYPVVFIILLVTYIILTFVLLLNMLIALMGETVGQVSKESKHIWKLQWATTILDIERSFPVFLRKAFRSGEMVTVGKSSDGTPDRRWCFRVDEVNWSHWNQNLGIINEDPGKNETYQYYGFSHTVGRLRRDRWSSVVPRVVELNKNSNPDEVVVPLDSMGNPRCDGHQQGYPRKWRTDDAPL

**Q.** With “endogenous RhoA copurified with overexpressed TRPV4 (from UniProt P61586 1-193) (natural protein)” as the substance, how does the stoichiometry N (RhoA per TRPV4 subunit) read?
**A.** Its stoichiometry N (RhoA per TRPV4 subunit) is 1.
